Among the data in paper PMC314469, “Protein Interaction Networks by Proteome Peptide Scanning” (PLoS Biology, 2004) are normalised SPOT signal, Boehringer light units (BLU); mean over the file's lines of this peptide values, retold here.

The test deals with Sho1 SH3 (SHO1_YEAST), P40073. As to the kind of experiment: SPOT array.
Sequence of Sho1 SH3 (SHO1_YEAST), P40073 (P40073 295-366): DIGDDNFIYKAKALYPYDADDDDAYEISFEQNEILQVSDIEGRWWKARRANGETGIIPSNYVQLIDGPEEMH
In turn, RRKPHSPNKKKPKE [12-25 Hypothetical ORF] came in with a normalised SPOT signal, Boehringer light units (BLU); mean over the file's lines of this peptide of 173.
The figure for SKFPELPSKVHNAV [141-154 methionyl tRNA synthetase] is 124; for SNSPISPHKLIYKN [473-486 positive transcriptional regulator of ADH2 and peroxisomal protein genes] it is 86.9; for RRGPGRPRKDASTS [204-217 nuclear protein involved in silencing] it is 998.
As for RPTPRKPSRMATDH [8-21 Transmembrane osmosensor], the normalised SPOT signal, Boehringer light units (BLU); mean over the file's lines of this peptide was found to be 1440.
SNNPSKPRKYKTKS [110-123 Hypothetical ORF] came in with a normalised SPOT signal, Boehringer light units (BLU); mean over the file's lines of this peptide of 332.
Consider SNSPQIPKKKVKDQ [1825-1838 Hypothetical ORF], for which the normalised SPOT signal, Boehringer light units (BLU); mean over the file's lines of this peptide worked out at 67.2.
As to SSMPNSPKKPVDSL [117-130 Product of gene unknown], the normalised SPOT signal, Boehringer light units (BLU); mean over the file's lines of this peptide turned out to be 63.7.
To SASPTLPTRRSRRL [62-75 Hypothetical ORF] belongs 212; to SGKPKKPYRRWTPE [666-679 negative regulator of prp genes], 233.
To SSTPTTPERPKRKS [758-771 Hypothetical ORF] belongs 214.
To SMYPGLPSRLEKEL [307-320 actin-related protein] belongs 334.
Turning to SLAPVYPLKSLLRI [665-678 Hypothetical ORF], the normalised SPOT signal, Boehringer light units (BLU); mean over the file's lines of this peptide turned out to be 91.3.
To SDKPLTPTKTSSTL [341-354 DNA Damage Inducible; binds to T- and V- snare complexes] belongs 135.
The molecule RPPPLTPEKNLYLT [258-271 Putative participant in 3' mRNA processing] gave a normalised SPOT signal, Boehringer light units (BLU); mean over the file's lines of this peptide of 117.
As to SAFPQSPIRAYGST [1382-1395 negative regulator of early meiotic genes], the normalised SPOT signal, Boehringer light units (BLU); mean over the file's lines of this peptide turned out to be 75.1.
To RPSPWLPSKPNSYH belongs 1300; to QNTPPLPPKPKSPH [175-188 homologous to mouse and human Tsg101 tumor susceptibility genes], 8430; to SHQPYLPIKNKNIV [329-342 Hypothetical ORF], 65.5.
To QSQPPRPPRPAANL [24-37 Hypothetical ORF] belongs 128.
Take SSFPTIPLRASSGA [232-245 Hypothetical ORF]: the normalised SPOT signal, Boehringer light units (BLU); mean over the file's lines of this peptide amounted to 210.
The figure for SASPYRPQRLPAKF [13-26 Hypothetical ORF] is 118; for QYIPPPPPKYINSK [482-495 Ume6p is a C6 zinc finger URS1-binding protein.] it is 304; for RNEPVKPFRNIDLK [29-42 delta-1-pyrroline-5-carboxylate dehydrogenase] it is 87.5.
To SELPKSPYRQKPTQ [124-137 " involved in meiosis, nuclear division and spore formation"] belongs 200; to QSNPTSPTKQTFTI [600-613 BEM1-binding protein], 39.1; to QPAPRIPSKDAIIS [100-113 transcription factor], 498.
The molecule SLPPTPPYKAHKKK [353-366 Hypothetical ORF] displayed a normalised SPOT signal, Boehringer light units (BLU); mean over the file's lines of this peptide of 544.
With QLTPLLPDKYFDSA [693-706 putative transcription factor], the normalised SPOT signal, Boehringer light units (BLU); mean over the file's lines of this peptide is 57.6.
To RIPPTVPSKIIDVV [7-20 Hypothetical ORF] belongs 521.
To SKGPRTPAKEILEF [310-323 " similar to Est1, which is a putative component of telomerase"] belongs 1610; to SSTPIVPNRLKTVL [158-171 DNA replication helicase], 161.
To QLLPNVPDKVLVPG [391-404 binds to single-stranded TG1-3 telomere G-tails] belongs 46.5; to SSQPRPPPRPQQNP [71-84 Hypothetical ORF], 83.4; to SHLPLIPEKIKSLK [203-216 similar to E. coli DinB and S. cerevisiae REV1], 175.
In turn, SALPILPKREVVTR [19-32 soluble cell wall protein] yielded a normalised SPOT signal, Boehringer light units (BLU); mean over the file's lines of this peptide of 141.
The figure for RKRPAPPKKKAPST [82-95 ISWI One Complex] is 208; for SSIPPNPGKTAKPI [108-121 " Probable transcription-associated factor protein, probable -transducin type"] it is 121.
As for RGTPANPGRVATLI [47-60 Hypothetical ORF], the normalised SPOT signal, Boehringer light units (BLU); mean over the file's lines of this peptide was 123.
SRKPPIPAKQHVKK [547-560 Ubiquitin-specific protease]: the normalised SPOT signal, Boehringer light units (BLU); mean over the file's lines of this peptide came out at 1010.
To QYYPEEPTKPTVKT [6-19 gamma-aminobutyrate (GABA) transaminase (4-aminobutyrate aminotransferase)] belongs 111; to SGKPLFPGRDYHHQ [221-234 MAP protein kinase homolog involved in pheromone signal transduction], 103; to RPNPTQPRKPLDSK [776-789 vacuolar import degradation], 99.9.
For QTSPGQPRKGQNGS [427-440 soluble tyrosine-specific protein phosphatase], the normalised SPOT signal, Boehringer light units (BLU); mean over the file's lines of this peptide stood at 61.3.
The figure for RERPLEPPRKPMAS is 554; for RAVPILPPRNNVEP [543-556 Hypothetical ORF] it is 126; for RLIPTSPQKTNINT [14-27 Hypothetical ORF] it is 85.2.
The figure for SNFPDFPLKKYLKN [333-346 Hypothetical ORF] is 115; for QRHPKSPVKKPMTS [878-891 involved in bud site selection] it is 190; for RVHPEPPNKPGITT [407-420 Hypothetical ORF] it is 149.
To SEEPTSPTRQVNPE [443-456 Putative participant in 3' mRNA processing] belongs 157; to SNDPIPPPRKVSDV [457-470 transcriptional activator of the SKN7 mediated 'two-component' regulatory system], 108; to SKIPMLPSRRTMAG [505-518 Meiotic regulatory protein; Cys-His zinc fingers], 1130.
Turning to SSRPTSPVRKARST [28-41 (putative) cell cycle exonuclease], the normalised SPOT signal, Boehringer light units (BLU); mean over the file's lines of this peptide amounted to 102.
Molecule SDLPSSPIKAPNVE [232-245 DNA replication helicase] came in with a normalised SPOT signal, Boehringer light units (BLU); mean over the file's lines of this peptide of 191.
